Molecular target: the molecule itself
Experiment: cross-linking; disulfide-linked species of purified GST-TNIK KD; oxidised in vitro with 50 uM H2O2 at 30°C for 15 min or without H2O2 (air oxidation); nonreducing (-DTT) or reducing (+DTT) SDS-PAGE and Western blotting

B1: Recombinant GST-tagged TNIK kinase domain (human amino acids 1 to 367) (domain or fragment, UniProt Q9UKE5 1-367, looked up)
chain: MASDSPARSLDEIDLSALRDPAGIFELVELVGNGTYGQVYKGRHVKTGQLAAIKVMDVTGDEEEEIKQEINMLKKYSHHRNIATYYGAFIKKNPPGMDDQLWLVMEFCGAGSVTDLIKNTKGNTLKEEWIAYICREILRGLSHLHQHKVIHRDIKGQNVLLTENAEVKLVDFGVSAQLDRTVGRRNTFIGTPYWMAPEVIACDENPDATYDFKSDLWSLGITAIEMAEGAPPLCDMHPMRALFLIPRNPAPRLKSKKWSKKFQSFIESCLVKNHSQRPATEQLMKHPFIRDQPNERQVRIQLKDHIDRTKKKRGEKDETEYEYSGSEEEEEENDSGEPSSILNLPGESTLRRDFLRLQLANKERSEA
notes: Oxidised in vitro with 50 uM H2O2 (30°C, 15 min) or left without H2O2; The disulfide-linked species were seen on nonreducing SDS-PAGE; GST is kept on the protein; also called GST-TNIK KD; TNIK KD; source: bought: Thermo Fisher Scientific, recombinant purified
  binding result: binds

From publication PMC11661440, “TNIK: A redox sensor in endothelial cell permeability” (Science Advances, 2024)
